Target: Cavβ3-I-II2.1 chimera (rat β3 subunit fused at its C-terminal end to the I-II loop of the rabbit Cavα2.1 subunit), [35S]-labelled (rat; rabbit) (UniProt P54287)
Assay: Gβγ (10 to 900 nM) displaces the intramolecular Cavβ-AID2.1 binding of [35S] Cavβ3-I-II2.1; read as binding of the chimera to GST-AID1.2 after 30 min at 30 °C, SDS-PAGE and autoradiography

UniProt P54287, sequence (P54287 other isoform, or with tags, fused parts or gaps mutant): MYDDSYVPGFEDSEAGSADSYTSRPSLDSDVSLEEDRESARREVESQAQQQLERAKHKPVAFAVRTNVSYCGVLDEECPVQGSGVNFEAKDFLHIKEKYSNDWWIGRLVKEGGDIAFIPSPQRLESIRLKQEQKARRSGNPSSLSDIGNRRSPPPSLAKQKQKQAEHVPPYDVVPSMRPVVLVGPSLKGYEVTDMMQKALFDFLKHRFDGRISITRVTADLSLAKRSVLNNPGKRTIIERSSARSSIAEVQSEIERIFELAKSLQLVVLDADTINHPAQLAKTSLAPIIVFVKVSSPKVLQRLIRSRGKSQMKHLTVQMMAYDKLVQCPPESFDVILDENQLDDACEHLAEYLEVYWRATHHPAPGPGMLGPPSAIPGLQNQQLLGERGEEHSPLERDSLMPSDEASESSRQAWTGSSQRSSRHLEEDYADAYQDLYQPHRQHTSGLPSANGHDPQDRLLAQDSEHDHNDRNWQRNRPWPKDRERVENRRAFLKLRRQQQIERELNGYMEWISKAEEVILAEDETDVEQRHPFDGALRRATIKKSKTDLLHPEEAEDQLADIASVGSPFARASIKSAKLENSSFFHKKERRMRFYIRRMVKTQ

G-protein Gβγ complex (Calbiochem)
IC50: 160 nM
